Molecular target: F-actin (polymerized non-muscle actin) (UniProt P60709 1-375)
Test: co-sedimentation; GST fusion protein incubated with 40 ul freshly polymerized non-muscle actin (21 uM F-actin) or F-actin buffer alone, 30 min at room temperature, 150,000 x g 1.5 h at 24 C; supernatant and pellet on SDS-PAGE, coomassie or western blot, densitometry
Conditions: both partners purified

B1: GST-EHBP-1(260-510aa) (domain or fragment, C. elegans, UniProt G5ECW3 260-510, looked up)
chain: APAPIATNRHSRSSRASTEEKASTTIEFRVDSNSRHVPVTAIATPYYLQSGTMSRGRSNSPRAPSRDAVPQPIDGETLLSWCQRVTNGYSHVKVNDFMKSWNNGLALCAVLHSYRPDLIGDYETLDISNNMSGRISNIQRALDSLTLIGITEVPTVDMFLTPDRKQIEFLLQHLRRIFEGFDEGSTPASASDHRISRTFGINESEEKVVAMITEIRNQKDLEEAVDYRHIPDEVPVTPQLASRNPALNQPT
notes: C. elegans EHBP-1, central calponin homology (CH) domain, residues 260-510; Cloned into pGEX-2T modified with a Gateway cassette; also called GST-CH; GST-EHBP-1-CH (aa260-510); source: E. coli ArcticExpress, purified (glutathione-Sepharose 4B, eluted with glutathione); held on glutathione beads for the pull-down
  P/S ratio (pellet/supernatant) with actin filaments: ~80%

Reference: PMC4894640, “RAB-10 Promotes EHBP-1 Bridging of Filamentous Actin and Tubular Recycling Endosomes” (PLoS Genetics, 2016)
